Test results as given in patent US20230075633A1 (SHANDONG BOAN BIOTECHNOLOGY, published 2023).
Substitutions are numbered along the chain they refer to.

T1: human CEA (human, UniProt P06731 35-702)
T1 sequence (looked up): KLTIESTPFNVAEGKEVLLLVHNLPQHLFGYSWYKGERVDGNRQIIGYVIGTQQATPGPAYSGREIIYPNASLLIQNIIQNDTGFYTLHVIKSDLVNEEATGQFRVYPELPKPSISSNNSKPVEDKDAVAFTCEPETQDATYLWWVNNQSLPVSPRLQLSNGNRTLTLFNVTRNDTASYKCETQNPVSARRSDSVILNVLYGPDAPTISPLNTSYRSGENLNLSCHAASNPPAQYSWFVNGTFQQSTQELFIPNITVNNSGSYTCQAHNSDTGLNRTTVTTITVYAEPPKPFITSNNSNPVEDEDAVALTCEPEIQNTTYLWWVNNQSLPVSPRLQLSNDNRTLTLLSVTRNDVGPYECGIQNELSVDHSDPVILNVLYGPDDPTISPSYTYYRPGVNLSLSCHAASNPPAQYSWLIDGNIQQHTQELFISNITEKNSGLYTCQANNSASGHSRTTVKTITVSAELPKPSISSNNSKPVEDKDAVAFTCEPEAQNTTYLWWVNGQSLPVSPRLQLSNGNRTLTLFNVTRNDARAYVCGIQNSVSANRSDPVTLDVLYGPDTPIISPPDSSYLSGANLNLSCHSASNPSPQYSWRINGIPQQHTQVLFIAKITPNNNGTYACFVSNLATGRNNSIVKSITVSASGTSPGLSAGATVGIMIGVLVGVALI

T2: Cynomolgus monkey CD3 protein (cynomolgus monkey, UniProt Q95LI5 22-117)
T2 sequence (looked up): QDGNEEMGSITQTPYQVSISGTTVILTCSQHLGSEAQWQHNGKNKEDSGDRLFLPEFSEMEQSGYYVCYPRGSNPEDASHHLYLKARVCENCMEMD

B1: CEA/CD3OPT1a3b2b1 BsAb (bispecific antibody, V domains shown)
VH 1: EVQLVESGGGLVQPGGSLRLSCAASGFNIKDTYMHWVRQAPGKGLEWVARIDPAQGNTKYADSVKGRFTISADTSKNTAYLQMNSLRAEDTAVYYCAPFGYYVSDYAMAYWGQGTLVTVSS
VL 1: DIQLTQSPSSLSASVGDRVTITCRAGESVDIFGVGFLHWYQQKPGKAPKLLIYRASNLESGVPSRFSGSGSRTDFTLTISSLQPEDFATYYCQQTNEDPYTFGQGTKVEIK
VH 2: EVQLVESGGGLVKPGGSLKLSCAASGFTFSTYAMNWVRQAPGKGLEWVARIRSKYNNYATTYADSVKDRFTISRDDSKNTAYLQMNNLRTEDTAVYYCVRHGNWGNSYISYWAYWGQGTTVTVSS
VL 2: not shown
notes: also called CEA/CD3-1a3b2b1-BsAb; Lead CEA/CD3; copies: 2 + 2 + 2 + 2
B2: CEA/CD3 parental BsAb (bispecific antibody, V domains shown)
VH 1: B1 VH 1
VL 1: B1 VL 1
VH 2: not shown
VL 2: not shown
notes: also called hT84.66/SP34 bispecific antibody; CEA/CD3 parental bispecific antibody; copies: 2 + 2 + 2 + 2
B3: CEA/CD3OPT3a (bispecific antibody, V domains shown)
VH 1: B1 VH 1
VL 1: B1 VL 1
VH 2: not shown
VL 2: not shown
notes: Same format as m1; copies: 2 + 2 + 2 + 2
B4: CEA/CD3OPT3 (bispecific antibody, V domains shown)
VH 1: B1 VH 1
VL 1: B1 VL 1
VH 2: B1 VH 2 with S30N, T31K, T61Y, N103Q
VL 2: not shown
B5: CEA/CD3OPT1a (bispecific antibody, V domains shown)
VH 1: B1 VH 1
VL 1: B1 VL 1
VH 2: B1 VH 2 with T61Y, W104F
VL 2: not shown
notes: Same format as m1; also called OPTSP34 1a; copies: 2 + 2 + 2 + 2
B6: CEA/CD3OPT2 (bispecific antibody, V domains shown)
VH 1: B1 VH 1
VL 1: B1 VL 1
VH 2: B1 VH 2 with S30N, T31K, K54N, Y62F, W104F
VL 2: not shown
B7: CEA/CD3OPT1a3b2b2 (bispecific antibody)
chain 1: B1 VH 1
chain 2: B1 VL 1
chain 3: EVQLVESGGGLVKPGGSLKLSCAASGFTFSTYAMNWVRQAPGKGLEWVARIRSKYNNYATYFADSVKDRFTISRDDSKNTAYLQMNNLRTEDTAVYYCVRHGNWGNSYISYWAYWGQGTTVTVSSQSVLTQPPSVSAAPGQRVTISCSGSTGAVTSGYYPNWYQQLPGTAPRLLIGGTKFLAPGTPDRFSGSSKSTSAALAISGVQSEDEADYYCALWYSNRWVFGGGTKLTVLG
B8: CEA/CD3OPT1a3b2a (bispecific antibody, V domains shown)
VH 1: B1 VH 1
VL 1: B1 VL 1
VH 2: B1 VH 2 with K54N, T61Y
VL 2: not shown
notes: Same format as m1; also called OPT SP34 1a3b2a; copies: 2 + 2 + 2 + 2
B9: CEA/CD3OPT1a3b (bispecific antibody, V domains shown)
VH 1: B1 VH 1
VL 1: B1 VL 1
VH 2: B1 VH 2 with T61Y
VL 2: not shown
notes: Same format as m1; also called OPT SP34 1a3b; copies: 2 + 2 + 2 + 2

The binders below were run against T1, human CEA (assay: cell-based or functional assay).

Binder | killing of LS-174T cells by PBMC at E:T ratio of 5:1 [%]
B1 | 20

These binders were tested against T3, human CD3 (human, UniProt P07766 23-207) (assay: cell-based or functional assay).
T3 sequence (P07766 23-207): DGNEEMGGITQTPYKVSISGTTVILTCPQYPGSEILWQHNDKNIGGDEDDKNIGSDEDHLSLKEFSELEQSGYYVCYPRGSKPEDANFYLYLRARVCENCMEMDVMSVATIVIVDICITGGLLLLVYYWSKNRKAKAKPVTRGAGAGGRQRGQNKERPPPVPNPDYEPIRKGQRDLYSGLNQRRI

Binder | NFAT-luciferase in Jurkat cells: Bottom | NFAT-luciferase in Jurkat cells: LogEC50 | NFAT-luciferase in Jurkat cells: Span | NFAT-luciferase in Jurkat cells: Top
B2 | 39.9 | -1.52 | 1280 | 1320
B3 | 52.8 | -1.66 | 1400 | 1460
B4 | 119 | -5.66 | -41.4 | 78
B5 | 49.9 | -0.801 | 1150 | 1200
B6 | 88.9 | -2.09 | -30.4 | 58.5

Target: T3, human CD3
Assay: cell-based or functional assay
Remark: another data set of the same source

Binder | NFAT-luciferase in Jurkat cells: Bottom | NFAT-luciferase in Jurkat cells: LogEC50 | NFAT-luciferase in Jurkat cells: Span | NFAT-luciferase in Jurkat cells: Top
B2 | -1040 | -0.58 | 121000 | 120000
B7 | 3450 | -0.0275 | 2670 | 6120
B8 | 3100 | -0.27 | 10700 | 13800
B9 | 1600 | -0.102 | 62800 | 64500
B1 | 2830 | -0.154 | 17200 | 20000
B5 | 1570 | -0.0022 | 130000 | 132000

Target: T1, human CEA
Assay: cell-based or functional assay
Remark: another data set of the same source

Binder | lysis of LS-174T cells by PBMC: Bottom | lysis of LS-174T cells by PBMC: LogEC50 | lysis of LS-174T cells by PBMC: Span | lysis of LS-174T cells by PBMC: Top
B2 | 13.8 | -2.69 | 91.7 | 106
B8 | 11.3 | -1.92 | 93.6 | 105
B9 | 12.1 | -2.69 | 96.6 | 109
B1 | 12.6 | -2.18 | 91.8 | 104
B3 | 13.1 | -2.86 | 92.2 | 105
B5 | 17.3 | -2.81 | 89.2 | 106

Target: T1, human CEA
Assay: cell-based or functional assay
Remark: another data set of the same source

Binder | lysis of KATO III cells by PBMC: Bottom | lysis of KATO III cells by PBMC: LogEC50 | lysis of KATO III cells by PBMC: Span | lysis of KATO III cells by PBMC: Top
B2 | 60.1 | -1.85 | 53 | 113
B8 | 63.8 | -0.332 | 34.6 | 98.5
B9 | 64.6 | -0.946 | 39.4 | 104
B1 | 58.1 | -0.194 | 36.2 | 94.3
B3 | 54.7 | -2.21 | 48.1 | 103
B5 | 52.5 | -0.944 | 51.7 | 104

Target: T1, human CEA
Assay: cell-based or functional assay
Remark: another data set of the same source

Binder | cytolysis of KATO-III cells by PBMC: EC50 [nM] | cytolysis of LS174T cells by PBMC: EC50 [nM] | cytolysis of MKN-45 cells by PBMC: EC50 [nM]
B1 | 0.132 | 0.0003 | 0.0003

The binders below were run against T3, human CD3 (assay: flow cytometry on Jurkat cells).
Procedure: (§1) Mean fluorescence intensity (MFI) was determined by Flow cytometry. […] Mean fluorescence intensity (MFI) was determined by Flow cytometry.

Binder | EC50 [nM]
B1 | 113

The binders below were run against T3, human CD3 (assay: flow cytometry on human PBMC (ND 12)).
Procedure: as §1

Binder | EC50 [nM]
B1 | 81

Each binder was assayed against T2, Cynomolgus monkey CD3 protein (assay: ELISA on cynomolgus monkey CD3 protein, curve fit).

Binder | Bottom (best-fit) | LogEC50 | Span (best-fit) | Top (best-fit)
B2 | 0.0164 | -1.65 | 4.09 | 4.1
B8 | 0.00337 | -1.81 | 4.06 | 4.06
B9 | 0.00304 | -1.84 | 4.03 | 4.03
B1 | 0.00678 | -1.75 | 4.09 | 4.1
B3 | 0.00466 | -1.94 | 4.01 | 4.02
B5 | 0.0666 | -1.32 | 4.02 | 4.09
